Biological target: wild-type influenza B virus nucleoprotein (BNP), B/panama/45/1990 (influenza B virus (B/panama/45/1990))
Assay: negative-stain electron microscopy

Question: How did the stoichiometry N turn out when “wild-type influenza B virus nucleoprotein (BNP), B/panama/45/1990 (natural protein)” was run?
Answer: > 6
